Results taken from patent publication US20170015720A1 (published 2017).

T1: CLDN6 (Claudin-6) peptide on HLA-A*02:01 (human)
T1 peptide: ALFGLLVYL

T2: CLDN6 (Claudin-6) peptide on HLA-A*02:01 (human)
T2 peptide: QILGVVLTL


Biological target: T1, CLDN6 (Claudin-6) peptide on HLA-A*02:01
Assay: killing

Binder | binding result
TCRCD8-mC16#1 (TCR, V domains shown) Valpha: AQSVTQPDARVTVSEGASLQLRCKYSYFGTPYLFWYVQYPRQGLQLLLKYYPGDPVVQGVNGFEAEFSKSNSSFHLRKASVHWSDWAVYFCAVSMSSGTYQRFGTGTKLQVVP Vbeta: DMKVTQMPRYLIKRMGENVLLECGQDMSHETMYWYRQDPGLGLQLIYISYDVDSNSEGDIPKGYRVSRKKREHFSLILDSAKTNQTSVYFCASSSQNQDTQYFGPGTRLLVL | recognises
TCRCD8-mC16#2 (TCR, V domains shown) Valpha: GDSVTQTEGQVTVSESKSLIINCTYSATSIGYPNLFWYVRYPGEGLQLLLKVITAGQKGSSRGFEATYNKEATSFHLQKASVQESDSAVYYCALNNQGKLIFGQGTKLSIKP Vbeta: EAAVTQSPRNKVAVTGGKVTLSCNQTNNHNNMYWYRQDTGHGLRLIHYSYGAGSTEKGDIPDGYKASRPSQENFSLILELATPSQTSVYFCASGGDSQNTLYFGAGTRLSVL | recognises
TCRCD8-mC16#8 (TCR, V domains shown) Valpha: AQKVTQTQTSISVVEKTTVTMDCVYETRDSSYFLFWYKQTASGEIVFLIRQDSYKKENATVGHYSLNFQKPKSSIGLIITATQIEDSAVYFCAMREAANSGTYQRFGTGTKLQVVP Vbeta: DPKIIQKPKYLVAVTGSEKILICEQYLGHNAMYWYRQSAKKPLEFMFSYSYQKLMDNQTASSRFQPQSSKKNHLDLQITALKPDDSATYFCASSQQNSGNTLYFGEGSRLIVV | recognises
TCRCD8-mC16#12 (TCR, V domains shown) Valpha: GEQVEQRPPHLSVREGDSAVITCTYTDPNSYYFFWYKQEPGASLQLLMKVFSSTEINEGQGFTVLLNKKDKRLSLNLTAAHPGDSAAYFCAVESSSFSKLVFGQGTSLSVVP Vbeta: NSKVIQTPRYLVKGQGQKAKMRCIPEKGHPVVFWYQQNKNNEFKFLINFQNQEVLQQIDMTEKRFSAECPSNSPCSLEIQSSEAGDSALYLCASSLTGGAQDTQYFGPGTRLLVL | recognises
TCRCD8-mC16#14 (TCR, V domains shown) Valpha: GDQVEQSPSALSLHEGTGSALRCNFTTTMRAVQWFRKNSRGSLINLFYLASGTKENGRLKSAFDSKERYSTLHIRDAQLEDSGTYFCAAEGGGNYKPTFGKGTSLVVHP Vbeta: AQTIHQWPVAEIKAVGSPLSLGCTIKGKSSPNLYWYWQATGGTLQQLFYSITVGQVESVVQLNLSASRPKDDQFILSTEKLLLSHSGFYLCAWSPPINTEVFFGKGTRLTVV | recognises
TCRCD8-mC16#18 (TCR, V domains shown) Valpha: GDSVTQTEGPVTVSESESLIINCTYSATSIAYPNLFWYVRYPGEGLQLLLKVITAGQKGSSRGFEATYNKETTSFHLQKASVQESDSAVYYCALGETGSFNKLTFGAGTRLAVCP Vbeta: NSKVIQTPRYLVKGQGQKAKMRCIPEKGHPVVFWYQQNKNNEFKFLINFQNQEVLQQIDMTEKRFSAECPSNSPCSLEIQSSEAGDSALYLCASSLGIYEQYFGPGTRLTVL | recognises

Biological target: T2, CLDN6 (Claudin-6) peptide on HLA-A*02:01
Assay: cytokine release

Binder | binding result
TCRCD8-mC16#7 (TCR, V domains shown) Valpha: GDSVTQTEGQVALSEEDFLTIHCNYSASGYPALFWYVQYPGEGPQFLFRASRDKEKGSSRGFEATYDKGTTSFHLRKASVQESDSAVYYCALGNNYAQGLTFGLGTRVSVFP Vbeta: EAAVTQSPRSKVAVTGGKVTLSCHQTNNHDYMYWYRQDTGHGLRLIHYSYVADSTEKGDIPDGYKASRPSQENFSLILELASLSQTAVYFCASSTGNERLFFGHGTKLSVL | recognises
